The values that follow come from article PMC4175982.

The target in this assay is GrpU protein from Clostridiales bacterium 1_7_47FAA (Clostridiales bacterium 1_7_47FAA). Briefly: crystal structure.

For orientation: stoichiometry N means a count of units in the complex or per binding partner. In the case of “GrpU protein from Clostridiales bacterium 1_7_47FAA (natural protein)”, the stoichiometry N amounted to 6.
